Assay results as given in PMC3273594.

Key:
[1] = target: TOAC labeled wild-type PLB; assay: SDS-PAGE
[2] = target: T1, Wild-type Phospholamban, P61014; assay: SDS-PAGE; details: remark: other sources report otherwise
T1 chain: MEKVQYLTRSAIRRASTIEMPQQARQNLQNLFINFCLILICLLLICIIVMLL

## TOAC labeled wild-type PLB
[1]
  stoichiometry N: 5

B1: Wild-type Phospholamban, P61014 1-52 (natural protein)
chain: MEKVQYLTRSAIRRASTIEMPQQARQNLQNLFINFCLILICLLLICIIVMLL
[2]
  stoichiometry N: 5
